Measured values taken from publication PMC11871226 (Nature Communications, 2025).

Molecular target: Purified human ACSS2 (bacterially expressed) (human, UniProt Q9NR19 1-701)
Experiment: pull-down

Chain of Purified human ACSS2 (bacterially expressed) (Q9NR19 whole entry): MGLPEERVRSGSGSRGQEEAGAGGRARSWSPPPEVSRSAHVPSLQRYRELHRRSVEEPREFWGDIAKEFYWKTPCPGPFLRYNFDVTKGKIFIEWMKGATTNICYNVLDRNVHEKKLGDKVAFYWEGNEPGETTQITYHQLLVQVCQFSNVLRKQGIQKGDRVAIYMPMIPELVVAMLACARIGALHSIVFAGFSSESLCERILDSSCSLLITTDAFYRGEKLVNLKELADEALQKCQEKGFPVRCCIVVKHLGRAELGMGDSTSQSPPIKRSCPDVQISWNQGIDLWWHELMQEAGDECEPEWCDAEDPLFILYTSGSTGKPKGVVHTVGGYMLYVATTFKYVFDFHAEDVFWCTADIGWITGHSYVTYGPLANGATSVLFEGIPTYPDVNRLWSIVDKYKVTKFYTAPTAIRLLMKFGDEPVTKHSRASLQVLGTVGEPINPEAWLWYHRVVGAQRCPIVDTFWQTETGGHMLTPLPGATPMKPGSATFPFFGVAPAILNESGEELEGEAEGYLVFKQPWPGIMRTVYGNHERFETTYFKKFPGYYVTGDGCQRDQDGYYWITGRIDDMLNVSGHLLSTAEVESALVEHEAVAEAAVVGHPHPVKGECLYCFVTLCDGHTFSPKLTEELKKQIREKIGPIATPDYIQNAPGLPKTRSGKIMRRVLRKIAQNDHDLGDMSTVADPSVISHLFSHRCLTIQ

B1: Purified human PAICS (bacterially expressed) (natural protein, UniProt P22234 1-425, looked up)
chain: MATAEVLNIGKKLYEGKTKEVYELLDSPGKVLLQSKDQITAGNAARKNHLEGKAAISNKITSCIFQLLQEAGIKTAFTRKCGETAFIAPQCEMIPIEWVCRRIATGSFLKRNPGVKEGYKFYPPKVELFFKDDANNDPQWSEEQLIAAKFCFAGLLIGQTEVDIMSHATQAIFEILEKSWLPQNCTLVDMKIEFGVDVTTKEIVLADVIDNDSWRLWPSGDRSQQKDKQSYRDLKEVTPEGLQMVKKNFEWVAERVELLLKSESQCRVVVLMGSTSDLGHCEKIKKACGNFGIPCELRVTSAHKGPDETLRIKAEYEGDGIPTVFVAVAGRSNGLGPVMSGNTAYPVISCPPLTPDWGVQDVWSSLRLPSGLGCSTVLSPEGSAQFAAQIFGLSNHLVWSKLRASILNTWISLKQADKKIRECNL
B1: binds.
